From US20160354437A1 (NORTHWESTERN UNIVERSITY, published 2016)

T1: AIM2 (human, UniProt O14862 1-343)
T1 construct: Endogenous in THP-1 lysates and hMΦ; N-terminally tagged (RFP, myc) where transfected into HEK293; also called endogenous AIM2; RFP-AIM2
T1 sequence (looked up): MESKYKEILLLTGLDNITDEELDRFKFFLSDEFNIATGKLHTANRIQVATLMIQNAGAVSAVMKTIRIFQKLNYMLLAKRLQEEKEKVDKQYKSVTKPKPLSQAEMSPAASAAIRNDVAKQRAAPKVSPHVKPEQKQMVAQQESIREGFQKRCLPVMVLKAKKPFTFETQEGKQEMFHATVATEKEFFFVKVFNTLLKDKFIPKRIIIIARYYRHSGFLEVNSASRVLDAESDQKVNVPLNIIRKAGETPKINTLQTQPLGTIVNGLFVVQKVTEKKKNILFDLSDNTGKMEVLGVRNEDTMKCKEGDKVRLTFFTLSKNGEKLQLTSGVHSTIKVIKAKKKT

T2: mouse ASC (mouse, UniProt Q9EPB4 1-193)
T2 construct: also called mASC; endogenous ASC in BMDM
T2 sequence (looked up): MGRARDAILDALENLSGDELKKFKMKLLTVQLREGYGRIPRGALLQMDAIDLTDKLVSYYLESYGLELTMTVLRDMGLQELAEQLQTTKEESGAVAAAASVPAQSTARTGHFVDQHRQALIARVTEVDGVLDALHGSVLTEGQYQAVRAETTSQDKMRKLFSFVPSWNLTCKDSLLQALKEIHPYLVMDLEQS

T3: AIM2 from BMDM (mouse, UniProt Q91VJ1 1-354)
T3 construct: also called mAIM2; mouse AIM2
T3 sequence (looked up): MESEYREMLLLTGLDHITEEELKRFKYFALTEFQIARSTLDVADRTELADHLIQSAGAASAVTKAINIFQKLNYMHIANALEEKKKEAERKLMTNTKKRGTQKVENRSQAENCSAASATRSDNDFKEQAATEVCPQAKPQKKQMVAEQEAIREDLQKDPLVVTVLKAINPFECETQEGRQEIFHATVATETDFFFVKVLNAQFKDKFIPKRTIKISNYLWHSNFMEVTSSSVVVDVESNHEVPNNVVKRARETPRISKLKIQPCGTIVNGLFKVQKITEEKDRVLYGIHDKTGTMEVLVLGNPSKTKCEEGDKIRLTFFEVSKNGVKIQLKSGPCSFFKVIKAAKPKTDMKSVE

B1: PYD of MNDA (other, human, UniProt P41218 1-88, looked up)
chain: MVNEYKKILLLKGFELMDDYHFTSIKSLLAYDLGLTTKMQEEYNRIKITDLMEKKFQGVACLDKLIELAKDMPSLKNLVNNLRKEKSK
notes: domain: PYD; also called MNDA-PYD
B2: POP3 (other)
chain: MESKYKEILLLTSLDNITDEELDRFKCFLPDEFNIATGKLHTLNSTSSQLDLKRWHGVCSEEDRIFQKLNYMLVAKCLREEQETGICGSPSSARSVSQSRLGLSFHGISGNAC
notes: POP3 as expressed in cells (HEK293, THP-1, hMΦ); in some microscopy endogenous POP3; also called GFP-POP3; PYRIN domain-only protein 3; not shown: N-terminal tag; GFP-POP3 is named for the co-IP, constructs with myc, HA, Flag, GFP or RFP were made
B3: GST-POP3 (other)
chain: B2 chain
notes: also called recombinant POP3; immobilized GST-POP3; not shown: glutathione S-transferase (GST) tag encoded by pGEX-4T1
B4: GST-POP1 (other)
chain: MGTKREAILKVLENLTPEELKKFKMKLGTVPLREGFERIPRGALGQLDIVDLTDKLVASYYEDYAAELVVAVLRDMRMLEEAARLQRAA
notes: also called immobilized GST-POP1; not shown: glutathione S-transferase (GST) tag encoded by pGEX-4T1
B5: PYD of AIM2 (other, human, UniProt O14862 1-87, looked up)
chain: MESKYKEILLLTGLDNITDEELDRFKFFLSDEFNIATGKLHTANRIQVATLMIQNAGAVSAVMKTIRIFQKLNYMLLAKRLQEEKEK
notes: domain: PYD; Made by in vitro transcription/translation for the GST pull-down; GFP- or RFP-tagged in HEK293 for the antibody specificity blot; also called AIM2-PYD
B6: PYD of PYHIN1 (other, human, UniProt Q6K0P9 1-88, looked up)
chain: MANNYKKIVLLKGLEVINDYHFRIVKSLLSNDLKLNPKMKEEYDKIQIADLMEEKFPGDAGLGKLIEFFKEIPTLGDLAETLKREKLK
notes: domain: PYD; also called IFIX-PYD
B7: PYD of IFI16 (other, human, UniProt Q16666 1-88, looked up)
chain: MGKKYKNIVLLKGLEVINDYHFRMVKSLLSNDLKLNLKMREEYDKIQIADLMEEKFRGDAGLGKLIKIFEDIPTLEDLAETLKKEKLK
notes: domain: PYD; also called IFI16-PYD; IF116 PYD

Legend:
[1] = target: B3; test: GST pull-down (FIG. 4a)
Procedure: (§1) For GST pull down experiments, POP3 was cloned into pGEX-4T1 and affinity purified as a GST fusion protein from E. coli BL21. Proteins were either prepared by in vitro transcription/translation (TNT Quick Coupled Transcription/Translation, Promega), or TCL were prepared from […] (16 hrs) BMDM or THP-1 cells by lysis (50 mM Hepes pH 7.4, 120 mM NaCl, 10% Glycerol, 2 mM EDTA, 0.5% Triton X-100, supplemented with protease inhibitors) as a source of endogenous proteins, and cleared lysates were incubated with immobilized GST-POP3 or GST control for 16 hrs at 4° C., followed by extensive washing with lysis buffer and analysis as above. For ASC cross-linking, 4×10⁶ BMDM were seeded in 60 mm plates and subjected to cross-linking as described 55. Briefly, cells were transfected with 1 μg/ml poly (dA:dT) for 5 hrs, supernatants were removed, cells rinsed with ice-cold PBS and lysed (20 mM Hepes pH 7.4, 100 mM NaCl, 1% NP-40, 1 mM sodium orthovanadate, supplemented with protease inhibitors) and further lysed by shearing. Cleared lysates were stored for immunoblot analysis and the insoluble pellets were resuspended in 500 μl PBS, supplemented with 2 mM disuccinimydyl suberate (DSS, Pierce) and incubated with rotation at room temperature for 30 min. Samples were centrifuged at 5,000 rpm for 10 min at 4° C. and the cross-linked pellets were resuspended in 50 μl Laemmli sample buffer and analyzed by immunoblot. Human lung tissue was embedded in paraffin, cut into 3 μm sections, mounted, deparaffinized and immunostained with mouse monoclonal CD68 (Dako) and rabbit polyclonal POP3 and peroxidase (HRP)/DAB+ and alkaline phosphatase (AP)/Fast Red enzyme/chromogen combinations (Dako) and specific isotype controls (Dako) and haemotoxylin counterstaining of nuclei.
(§2) GST-POP3, but not GST control, bound to the PYD of AIM2 and IF116.

[2] = target: the molecule itself; test: co-IP in HEK293 cells
[3] = target: T1, AIM2; test: figure title (pull-down, co-IP, co-localisation)
[4] = target: T2, mouse ASC; test: GST pull-down from BMDM lysates (FIG. 11a)
Procedure: For GST pull down experiments, POP3 was cloned into pGEX-4T1 and affinity purified as a GST fusion protein from E. coli BL21. Proteins were either prepared by in vitro transcription/translation (TNT Quick Coupled Transcription/Translation, Promega), or TCL were prepared from […] (16 hrs) BMDM or THP-1 cells by lysis (50 mM Hepes pH 7.4, 120 mM NaCl, 10% Glycerol, 2 mM EDTA, 0.5% Triton X-100, supplemented with protease inhibitors) as a source of endogenous proteins, and cleared lysates were incubated with immobilized GST-POP3 or GST control for 16 hrs at 4° C., followed by extensive washing with lysis buffer and analysis as above. For ASC cross-linking, 4×10⁶ BMDM were seeded in 60 mm plates and subjected to cross-linking as described 55. […] Samples were centrifuged at 5,000 rpm for 10 min at 4° C. and the cross-linked pellets were resuspended in 50 μl Laemmli sample buffer and analyzed by immunoblot. […]
The PYDs of human and mouse ALRs are well conserved. […] To delineate the mechanism by which POP3 inhibits ALR inflammasomes in mouse macrophages, ASC oligomerization was analyzed in response to AIM2 inflammasome stimulation with poly(dA:dT) in WT and CD68-POP3 TG BMDM as a readout for AIM2 inflammasome formation (Fernandes-Alnemri et al. Nature.

[5] = target: T3, AIM2 from BMDM; test: GST pull-down from BMDM lysates (FIG. 22c)
Procedure: (§3) POP1 was expressed from pGEX-4T1 and affinity purified as a GST fusion protein from E. coli BL21 (Stehlik et al. Biochem. J 373, 101-113 (2003); herein incorporated by reference in its entirety). Protein lysates were prepared from LPS-treated (16 h) BMDM or THP-1 cells by lysis (50 mM Hepes pH 7.4, 120 mM NaCl, 10% Glycerol, 2 mM EDTA, 0.5% Triton X-100, supplemented with protease inhibitors), and cleared lysates were incubated with immobilized GST-POP1 or GST control for 16 h at 4° C., followed by extensive washing with lysis buffer and analysis as above.

[6] = target: T4, NLRP3 from BMDM (mouse, UniProt Q8R4B8 1-1033); test: GST pull-down from BMDM lysates (FIG. 22c)
T4 construct: also called mNLRP3; mouse NLRP3
Procedure: as §3

[7] = target: T5, NLRP3 (human, UniProt Q96P20 1-1036); test: GST pull-down from THP-1 lysates (FIG. 18a)
T5 construct: Endogenous in THP-1 lysates; MYC-tagged where transfected into HEK293; also called MYC-NLRP3; endogenous NLRP3
Procedure: as §3
(§4) Recruitment of ASC to upstream sensors is essential for inflammasome activation. POP1 specifically bound to endogenous ASC, but not to the PYD-containing PRRs NLRP3 and AIM2 in LPS-primed THP-1 cells (FIG. 18a), emphasizing the selectivity of these interactions. […] Binding of ASC to NLRP3 induces ASC^PYD nucleation, which provides the oligomeric platform essential for caspase-1 activation (Lu et al. Cell 156, 1193-206 (2014); Cai et al. Cell 156, 1207-22 (2014); herein incorporated by reference in their entireties). […] POP1 binding to the ASC^PYD could also directly prevent ASC^PYD self-polymerization.

[8] = target: T1, AIM2; test: GST pull-down from THP-1 lysates (FIG. 18a)
Procedure: as §3, §4

[9] = target: T6, GST control (UniProt P08515 1-218 = GST); test: GST pull-down (FIG. 4a)
T6 construct: Negative control of the GST pull-downs
Procedure: as §1, §2

T6 sequence (P08515 whole entry): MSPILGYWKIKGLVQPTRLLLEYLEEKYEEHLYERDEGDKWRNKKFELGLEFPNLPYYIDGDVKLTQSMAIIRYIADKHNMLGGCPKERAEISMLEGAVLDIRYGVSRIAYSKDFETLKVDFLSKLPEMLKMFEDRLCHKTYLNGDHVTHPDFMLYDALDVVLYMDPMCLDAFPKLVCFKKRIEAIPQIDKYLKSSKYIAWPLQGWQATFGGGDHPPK
T5 sequence (Q96P20 whole entry): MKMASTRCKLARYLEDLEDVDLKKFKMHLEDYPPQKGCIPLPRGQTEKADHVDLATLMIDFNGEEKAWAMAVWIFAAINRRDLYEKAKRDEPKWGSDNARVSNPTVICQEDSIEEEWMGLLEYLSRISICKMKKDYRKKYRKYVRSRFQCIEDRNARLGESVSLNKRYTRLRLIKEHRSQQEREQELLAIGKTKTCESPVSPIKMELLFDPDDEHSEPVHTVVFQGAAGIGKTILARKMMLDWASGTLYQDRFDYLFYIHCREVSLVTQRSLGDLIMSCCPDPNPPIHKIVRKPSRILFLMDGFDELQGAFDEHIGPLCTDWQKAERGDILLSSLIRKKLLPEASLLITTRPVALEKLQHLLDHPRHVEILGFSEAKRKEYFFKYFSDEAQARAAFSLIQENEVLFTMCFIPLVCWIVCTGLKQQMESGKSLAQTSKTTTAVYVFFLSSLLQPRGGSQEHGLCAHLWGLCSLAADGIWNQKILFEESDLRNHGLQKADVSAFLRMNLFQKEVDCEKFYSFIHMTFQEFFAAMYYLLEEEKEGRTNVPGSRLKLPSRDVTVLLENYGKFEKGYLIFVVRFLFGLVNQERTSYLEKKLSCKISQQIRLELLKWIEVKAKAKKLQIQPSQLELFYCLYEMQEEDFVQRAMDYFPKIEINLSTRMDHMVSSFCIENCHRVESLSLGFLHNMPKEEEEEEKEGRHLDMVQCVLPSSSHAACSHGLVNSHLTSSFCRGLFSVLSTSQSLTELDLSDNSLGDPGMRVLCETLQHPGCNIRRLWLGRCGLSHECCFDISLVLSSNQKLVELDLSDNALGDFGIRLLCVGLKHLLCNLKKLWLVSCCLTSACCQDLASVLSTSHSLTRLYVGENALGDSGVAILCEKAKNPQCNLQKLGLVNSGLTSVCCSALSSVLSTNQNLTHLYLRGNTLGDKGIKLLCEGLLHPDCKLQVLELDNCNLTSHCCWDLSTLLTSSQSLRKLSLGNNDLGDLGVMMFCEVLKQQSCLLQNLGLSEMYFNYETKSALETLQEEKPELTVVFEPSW
T4 sequence (Q8R4B8 whole entry): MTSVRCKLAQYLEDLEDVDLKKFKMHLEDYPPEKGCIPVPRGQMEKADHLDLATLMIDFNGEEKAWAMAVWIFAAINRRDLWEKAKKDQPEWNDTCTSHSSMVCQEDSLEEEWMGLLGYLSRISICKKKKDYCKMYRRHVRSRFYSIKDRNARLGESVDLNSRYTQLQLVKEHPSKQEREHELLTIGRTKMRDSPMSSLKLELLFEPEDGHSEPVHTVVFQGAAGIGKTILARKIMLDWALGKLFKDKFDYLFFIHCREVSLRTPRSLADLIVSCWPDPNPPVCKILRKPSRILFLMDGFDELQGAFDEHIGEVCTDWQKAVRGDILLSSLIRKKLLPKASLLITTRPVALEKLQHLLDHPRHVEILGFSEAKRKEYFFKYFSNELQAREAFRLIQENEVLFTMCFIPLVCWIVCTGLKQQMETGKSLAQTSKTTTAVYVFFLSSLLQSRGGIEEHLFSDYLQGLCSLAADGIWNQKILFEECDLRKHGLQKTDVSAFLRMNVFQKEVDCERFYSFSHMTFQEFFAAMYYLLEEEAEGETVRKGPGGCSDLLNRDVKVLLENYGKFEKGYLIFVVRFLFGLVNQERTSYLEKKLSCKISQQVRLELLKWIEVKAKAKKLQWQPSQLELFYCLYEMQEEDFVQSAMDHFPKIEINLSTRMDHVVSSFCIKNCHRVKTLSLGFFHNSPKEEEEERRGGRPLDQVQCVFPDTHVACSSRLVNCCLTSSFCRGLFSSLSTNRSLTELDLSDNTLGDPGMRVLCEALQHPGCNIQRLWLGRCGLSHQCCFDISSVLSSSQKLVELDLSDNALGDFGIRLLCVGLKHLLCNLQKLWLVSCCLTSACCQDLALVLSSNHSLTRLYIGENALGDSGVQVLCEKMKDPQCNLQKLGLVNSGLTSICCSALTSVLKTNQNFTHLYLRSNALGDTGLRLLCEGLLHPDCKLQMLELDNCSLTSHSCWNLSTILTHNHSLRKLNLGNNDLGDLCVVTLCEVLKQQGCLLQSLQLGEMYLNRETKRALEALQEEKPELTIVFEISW

Binder: B1
binding result [1]: no binding

Binder: B2
binding result [2]: binds
binding result [3]: binds

Binder: B3
binding result [4]: no binding

Binder: B4
binding result [5]: no binding
binding result [6]: no binding
binding result [7]: no binding
binding result [8]: no binding

Binder: B5
binding result [9]: no binding

Binder: B6
binding result [1]: no binding

Binder: B7
binding result [9]: no binding
